The results in this text go back to patent publication US20180273587A1 (AILERON THERAPEUTICS, published 2018).

Positions of bridges follow the written chain, without caps; N, C: chain ends. Non-standard residues stand in square brackets, D forms with d. R8 = C=CCCCCCC[C@@](C)(N)C(=O)O; S5 = C=CCCC[C@](C)(N)C(=O)O

As usually defined, the Ki is the dissociation constant of the complex between target and ligand, obtained from inhibition or displacement. A high value points to a looser hold on the target.

Holding throughout (assay): Ki table, method not stated
The target of one assay is BCL-2 (UniProt P10415 1-217, limits assumed).
BCL-2, sequence (P10415 1-217 limits assumed): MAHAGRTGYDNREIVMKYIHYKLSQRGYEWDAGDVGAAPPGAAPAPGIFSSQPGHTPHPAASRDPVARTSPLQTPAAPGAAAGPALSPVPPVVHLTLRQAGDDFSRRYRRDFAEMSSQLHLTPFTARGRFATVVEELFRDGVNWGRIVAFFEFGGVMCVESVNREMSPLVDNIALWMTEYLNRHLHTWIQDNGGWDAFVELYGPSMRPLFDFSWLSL
The target in a further assay is T1, MCL-1 (UniProt Q07820 172-327, limits assumed).
T1 construct: also called Myeloid cell leukemia 1
T1 sequence (Q07820 172-327 limits assumed): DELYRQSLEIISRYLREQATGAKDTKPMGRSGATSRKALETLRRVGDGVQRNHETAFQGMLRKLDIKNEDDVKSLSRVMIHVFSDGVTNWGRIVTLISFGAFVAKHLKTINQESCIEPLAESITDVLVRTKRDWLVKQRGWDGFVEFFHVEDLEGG

The target in another assay is BCL-XL (UniProt Q07817 1-209).
BCL-XL, sequence (Q07817 1-209): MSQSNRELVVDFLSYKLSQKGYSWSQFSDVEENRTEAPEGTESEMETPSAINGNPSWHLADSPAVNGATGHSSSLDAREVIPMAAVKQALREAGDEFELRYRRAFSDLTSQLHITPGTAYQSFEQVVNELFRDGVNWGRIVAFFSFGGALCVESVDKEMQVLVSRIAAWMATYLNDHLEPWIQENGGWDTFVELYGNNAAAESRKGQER

B1: SEQ ID NO: 1643 (peptide)
peptide: Ac-IWIAQALR[R8]IGDEFA[S5]YYA-NH2
modifications: staple 9-16
SMILES: CC[C@H](C)[C@H](NC(C)=O)C(=O)N[C@@H](Cc1c[nH]c2ccccc12)C(=O)N[C@H](C(=O)N[C@@H](C)C(=O)N[C@@H](CCC(N)=O)C(=O)N[C@@H](C)C(=O)N[C@@H](CC(C)C)C(=O)N[C@@H](CCCNC(=N)N)C(=O)N[C@]1(C)CCCCCCC=CCCC[C@@](C)(C(=O)N[C@@H](Cc2ccc(O)cc2)C(=O)N[C@@H](Cc2ccc(O)cc2)C(=O)N[C@@H](C)C(N)=O)NC(=O)[C@H](C)NC(=O)[C@H](Cc2ccccc2)NC(=O)[C@H](CCC(=O)O)NC(=O)[C@H](CC(=O)O)NC(=O)CNC(=O)[C@H]([C@@H](C)CC)NC1=O)[C@@H](C)CC
Consider B1, for which the inhibitory constant (Ki) with BCL-2 was determined as 21.9 nM; with MCL-1, 7 nM; with BCL-XL, 15.4 nM.

B2: SEQ ID NO: 1648 (peptide)
peptide: Ac-IAIAQALR[R8]IGDAFN[S5]YYA-NH2
modifications: staple 9-16
SMILES: CC[C@H](C)[C@H](NC(C)=O)C(=O)N[C@@H](C)C(=O)N[C@H](C(=O)N[C@@H](C)C(=O)N[C@@H](CCC(N)=O)C(=O)N[C@@H](C)C(=O)N[C@@H](CC(C)C)C(=O)N[C@@H](CCCNC(=N)N)C(=O)N[C@]1(C)CCCCCCC=CCCC[C@@](C)(C(=O)N[C@@H](Cc2ccc(O)cc2)C(=O)N[C@@H](Cc2ccc(O)cc2)C(=O)N[C@@H](C)C(N)=O)NC(=O)[C@H](CC(N)=O)NC(=O)[C@H](Cc2ccccc2)NC(=O)[C@H](C)NC(=O)[C@H](CC(=O)O)NC(=O)CNC(=O)[C@H]([C@@H](C)CC)NC1=O)[C@@H](C)CC
Turning to B2, the inhibitory constant (Ki) in the assay with BCL-2 was determined as 37.7 nM; with MCL-1, 19.7 nM; in the assay with BCL-XL, 22.3 nM.

B3: SEQ ID NO: 1649 (peptide)
peptide: Ac-IWIAQALR[R8]IGDEFN[S5]YYA-NH2
modifications: staple 9-16
SMILES: CC[C@H](C)[C@H](NC(C)=O)C(=O)N[C@@H](Cc1c[nH]c2ccccc12)C(=O)N[C@H](C(=O)N[C@@H](C)C(=O)N[C@@H](CCC(N)=O)C(=O)N[C@@H](C)C(=O)N[C@@H](CC(C)C)C(=O)N[C@@H](CCCNC(=N)N)C(=O)N[C@]1(C)CCCCCCC=CCCC[C@@](C)(C(=O)N[C@@H](Cc2ccc(O)cc2)C(=O)N[C@@H](Cc2ccc(O)cc2)C(=O)N[C@@H](C)C(N)=O)NC(=O)[C@H](CC(N)=O)NC(=O)[C@H](Cc2ccccc2)NC(=O)[C@H](CCC(=O)O)NC(=O)[C@H](CC(=O)O)NC(=O)CNC(=O)[C@H]([C@@H](C)CC)NC1=O)[C@@H](C)CC
As for B3, the Ki worked out at 3.2 nM with BCL-2, 1.8 nM with MCL-1 and 1.4 nM with BCL-XL.

B4: SEQ ID NO: 1652 (peptide)
peptide: Ac-IWIAAALR[R8]IGDQFN[S5]YYA-NH2
modifications: staple 9-16
SMILES: CC[C@H](C)[C@H](NC(C)=O)C(=O)N[C@@H](Cc1c[nH]c2ccccc12)C(=O)N[C@H](C(=O)N[C@@H](C)C(=O)N[C@@H](C)C(=O)N[C@@H](C)C(=O)N[C@@H](CC(C)C)C(=O)N[C@@H](CCCNC(=N)N)C(=O)N[C@]1(C)CCCCCCC=CCCC[C@@](C)(C(=O)N[C@@H](Cc2ccc(O)cc2)C(=O)N[C@@H](Cc2ccc(O)cc2)C(=O)N[C@@H](C)C(N)=O)NC(=O)[C@H](CC(N)=O)NC(=O)[C@H](Cc2ccccc2)NC(=O)[C@H](CCC(N)=O)NC(=O)[C@H](CC(=O)O)NC(=O)CNC(=O)[C@H]([C@@H](C)CC)NC1=O)[C@@H](C)CC
Take B4: the inhibition constant (Ki) in the assay with BCL-2 was determined as 22 nM; with MCL-1 it was 6 nM; with BCL-XL it was 4 nM.

B5: SEQ ID NO: 1651 (peptide)
peptide: Ac-IWIAAALR[R8]IGDEFN[S5]YYA-NH2
modifications: staple 9-16
SMILES: CC[C@H](C)[C@H](NC(C)=O)C(=O)N[C@@H](Cc1c[nH]c2ccccc12)C(=O)N[C@H](C(=O)N[C@@H](C)C(=O)N[C@@H](C)C(=O)N[C@@H](C)C(=O)N[C@@H](CC(C)C)C(=O)N[C@@H](CCCNC(=N)N)C(=O)N[C@]1(C)CCCCCCC=CCCC[C@@](C)(C(=O)N[C@@H](Cc2ccc(O)cc2)C(=O)N[C@@H](Cc2ccc(O)cc2)C(=O)N[C@@H](C)C(N)=O)NC(=O)[C@H](CC(N)=O)NC(=O)[C@H](Cc2ccccc2)NC(=O)[C@H](CCC(=O)O)NC(=O)[C@H](CC(=O)O)NC(=O)CNC(=O)[C@H]([C@@H](C)CC)NC1=O)[C@@H](C)CC
Turning to B5, the inhibition constant Ki is 6 nM with BCL-2, 1 nM in the assay with MCL-1 and 1 nM with BCL-XL.

B6: SEQ ID NO: 1650 (peptide)
peptide: Ac-IWIAQALR[R8]IGDQFN[S5]YYA-NH2
modifications: staple 9-16
SMILES: CC[C@H](C)[C@H](NC(C)=O)C(=O)N[C@@H](Cc1c[nH]c2ccccc12)C(=O)N[C@H](C(=O)N[C@@H](C)C(=O)N[C@@H](CCC(N)=O)C(=O)N[C@@H](C)C(=O)N[C@@H](CC(C)C)C(=O)N[C@@H](CCCNC(=N)N)C(=O)N[C@]1(C)CCCCCCC=CCCC[C@@](C)(C(=O)N[C@@H](Cc2ccc(O)cc2)C(=O)N[C@@H](Cc2ccc(O)cc2)C(=O)N[C@@H](C)C(N)=O)NC(=O)[C@H](CC(N)=O)NC(=O)[C@H](Cc2ccccc2)NC(=O)[C@H](CCC(N)=O)NC(=O)[C@H](CC(=O)O)NC(=O)CNC(=O)[C@H]([C@@H](C)CC)NC1=O)[C@@H](C)CC
B6: the inhibitory constant (Ki) with BCL-2 was determined as 67 nM; in the assay with MCL-1 it was 5.2 nM; with BCL-XL, 12 nM.

B7: SEQ ID NO: 1653 (peptide)
peptide: Ac-IWIAAALR[R8]IGDAFN[S5]YYA-NH2
modifications: staple 9-16
SMILES: CC[C@H](C)[C@H](NC(C)=O)C(=O)N[C@@H](Cc1c[nH]c2ccccc12)C(=O)N[C@H](C(=O)N[C@@H](C)C(=O)N[C@@H](C)C(=O)N[C@@H](C)C(=O)N[C@@H](CC(C)C)C(=O)N[C@@H](CCCNC(=N)N)C(=O)N[C@]1(C)CCCCCCC=CCCC[C@@](C)(C(=O)N[C@@H](Cc2ccc(O)cc2)C(=O)N[C@@H](Cc2ccc(O)cc2)C(=O)N[C@@H](C)C(N)=O)NC(=O)[C@H](CC(N)=O)NC(=O)[C@H](Cc2ccccc2)NC(=O)[C@H](C)NC(=O)[C@H](CC(=O)O)NC(=O)CNC(=O)[C@H]([C@@H](C)CC)NC1=O)[C@@H](C)CC
B7: the figures for the inhibitory constant (Ki) with BCL-2, with MCL-1 and with BCL-XL were 65.4 nM, 6.7 nM and 25.6 nM, respectively.

B8: SEQ ID NO: 1654 (peptide)
peptide: Ac-IWIAQALR[R8]IGDAFA[S5]YYA-NH2
modifications: staple 9-16
SMILES: CC[C@H](C)[C@H](NC(C)=O)C(=O)N[C@@H](Cc1c[nH]c2ccccc12)C(=O)N[C@H](C(=O)N[C@@H](C)C(=O)N[C@@H](CCC(N)=O)C(=O)N[C@@H](C)C(=O)N[C@@H](CC(C)C)C(=O)N[C@@H](CCCNC(=N)N)C(=O)N[C@]1(C)CCCCCCC=CCCC[C@@](C)(C(=O)N[C@@H](Cc2ccc(O)cc2)C(=O)N[C@@H](Cc2ccc(O)cc2)C(=O)N[C@@H](C)C(N)=O)NC(=O)[C@H](C)NC(=O)[C@H](Cc2ccccc2)NC(=O)[C@H](C)NC(=O)[C@H](CC(=O)O)NC(=O)CNC(=O)[C@H]([C@@H](C)CC)NC1=O)[C@@H](C)CC
Turning to B8, the inhibition constant Ki with BCL-2 came to 115 nM; with MCL-1, 7.4 nM; in the assay with BCL-XL, 55.7 nM.
